Test results taken from the supplement of paper PMC7877785.
± gives the uncertainty stated by the source.

Test: self-splicing fitness, log relative to wild type (ln ratio); higher = more splicing; Tetrahymena group I intron in knt gene, E. coli kanamycin selection, DiMSum; sequences stand for … in CUCUCU…GGAGGGAAAAGUUAUCAGGCAUGCACCUGGUAGCUAGUCUUUAAACCAAUAGAUUGCAUCGGUUUAAAAGGCAAGACCGUCAAAUUGCGGGAAAGGGGUCAACAGCCGUUCAGUACCAAGUCUCAGGGGAAACUUUGAGAUGGCCUUGCAAAGGGUAUGGUAAUAAGCUGACGGACAUGGUCCUAACCACGCAGCCAAGUCCUAAGUCAACAGAUCUUCUGUUGAUAUGGAUGCAGUUCACAGACUAAAUGUCGGUCGGGGAAGAUGUAUUCUUCUCAUAAGAUAUAGUCGGACCUCUCCUUAAUGGGAGCUAGCGGAUGAAGUGAUGCAACACUGGAGCCGCUGGGAACUAAUUUGUAUGCGAAAGUAUAUUGAUUAGUUUUGGAGUACUCGUGGUCG
Outline: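 Library with all eight P1ex-region intron nucleotides randomised, intron inside the knt kanamycin-resistance gene on pET-22b(+), in E. coli BL21(DE3). Cells grew overnight at 37°C or 30°C on LB agar with or without 25 μg/mL kanamycin (plus 100 μg/mL carbenicillin, 50 μM IPTG, 0.2% rhamnose), in six replicate transformations. Pooled colonies were amplicon-sequenced on Illumina HiSeq 2500. DiMSum fitness is the error-weighted combination of wild-type-normalised replicate fold changes, kanamycin versus none.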

## GACUAGCAAUAUUACGAAGG
30 °C
  self-splicing fitness (ln): -2.64 ± 0.17
37 °C
  self-splicing fitness (ln): -1.87 ± 0.18

## GACUAGCAAUAUUACGAGGG
30 °C
  self-splicing fitness (ln): -3.34 ± 0.18
37 °C
  self-splicing fitness (ln): -2.65 ± 0.2

## GACUAGCAAUAUUACGAUUU
30 °C
  self-splicing fitness (ln): 0.261 ± 0.061
37 °C
  self-splicing fitness (ln): 0.116 ± 0.077

## GACUAGCAAUAUUACGCAAA
30 °C
  self-splicing fitness (ln): -1.49 ± 0.15
37 °C
  self-splicing fitness (ln): -1.88 ± 0.23

## GACUAGCAAUAUUACGCCGG
37 °C
  self-splicing fitness (ln): -1.67 ± 0.36

## GACUAGCAAUAUUACGCCUU
30 °C
  self-splicing fitness (ln): -0.605 ± 0.067
37 °C
  self-splicing fitness (ln): 0.734 ± 0.092

## GACUAGCAAUAUUACGCGGA
30 °C
  self-splicing fitness (ln): -1.55 ± 0.13
37 °C
  self-splicing fitness (ln): -0.984 ± 0.11

## GACUAGCAAUAUUACGCGGC
30 °C
  self-splicing fitness (ln): -3.16 ± 0.38

## GACUAGCAAUAUUACGGAAG
30 °C
  self-splicing fitness (ln): -3.56 ± 0.19
37 °C
  self-splicing fitness (ln): -2.21 ± 0.19

## GACUAGCAAUAUUACGGCUC
30 °C
  self-splicing fitness (ln): 0.193 ± 0.1
37 °C
  self-splicing fitness (ln): 0.351 ± 0.12

## GACUAGCAAUAUUACGGGAA
30 °C
  self-splicing fitness (ln): -2.32 ± 0.19
37 °C
  self-splicing fitness (ln): -0.809 ± 0.16

## GACUAGCAAUAUUACGGGGC
30 °C
  self-splicing fitness (ln): -4.11 ± 0.23
37 °C
  self-splicing fitness (ln): -1.21 ± 0.13

## GACUAGCAAUAUUACGGGGG
30 °C
  self-splicing fitness (ln): -3.39 ± 0.27
37 °C
  self-splicing fitness (ln): -1.46 ± 0.25

## GACUAGCAAUAUUACGGGUG
30 °C
  self-splicing fitness (ln): -1.25 ± 0.078
37 °C
  self-splicing fitness (ln): -0.949 ± 0.07

## GACUAGCAAUAUUACGGUAG
30 °C
  self-splicing fitness (ln): -0.551 ± 0.12
37 °C
  self-splicing fitness (ln): -0.15 ± 0.14

## GACUAGCAAUAUUACGUCAG
30 °C
  self-splicing fitness (ln): -2.88 ± 0.21
37 °C
  self-splicing fitness (ln): -3.7 ± 0.37

## GAGAAGCAAUAUUACGACUA
30 °C
  self-splicing fitness (ln): -0.502 ± 0.061
37 °C
  self-splicing fitness (ln): 0.183 ± 0.082

## GAGAAGCAAUAUUACGAGCC
30 °C
  self-splicing fitness (ln): -1.03 ± 0.097
37 °C
  self-splicing fitness (ln): -0.808 ± 0.15

## GAGAAGCAAUAUUACGAGUG
30 °C
  self-splicing fitness (ln): -2.91 ± 0.14
37 °C
  self-splicing fitness (ln): -1.01 ± 0.11

## GAGAAGCAAUAUUACGCACU
30 °C
  self-splicing fitness (ln): -1.73 ± 0.14
37 °C
  self-splicing fitness (ln): -0.249 ± 0.16

## GAGAAGCAAUAUUACGCAUA
30 °C
  self-splicing fitness (ln): -1.72 ± 0.13
37 °C
  self-splicing fitness (ln): -1.01 ± 0.14

## GAGAAGCAAUAUUACGCCCG
30 °C
  self-splicing fitness (ln): -2.15 ± 0.19
37 °C
  self-splicing fitness (ln): 0.00226 ± 0.24

## GAGAAGCAAUAUUACGCGUG
30 °C
  self-splicing fitness (ln): -0.423 ± 0.062
37 °C
  self-splicing fitness (ln): -0.803 ± 0.09

## GAGAAGCAAUAUUACGCUAA
30 °C
  self-splicing fitness (ln): -2.47 ± 0.3
37 °C
  self-splicing fitness (ln): -0.911 ± 0.24

## GAGAAGCAAUAUUACGGAAA
30 °C
  self-splicing fitness (ln): -2.35 ± 0.45
37 °C
  self-splicing fitness (ln): -1.92 ± 0.35

## GAGAAGCAAUAUUACGGACA
30 °C
  self-splicing fitness (ln): -0.633 ± 0.11
37 °C
  self-splicing fitness (ln): -1.02 ± 0.14

## GAGAAGCAAUAUUACGGACC
30 °C
  self-splicing fitness (ln): -0.43 ± 0.18
37 °C
  self-splicing fitness (ln): 0.267 ± 0.19

## GAGAAGCAAUAUUACGGCAC
30 °C
  self-splicing fitness (ln): -1.28 ± 0.083
37 °C
  self-splicing fitness (ln): -0.111 ± 0.15

## GAGAAGCAAUAUUACGGCAG
30 °C
  self-splicing fitness (ln): -3.08 ± 0.41
37 °C
  self-splicing fitness (ln): -1.85 ± 0.3

## GAGAAGCAAUAUUACGGGAC
30 °C
  self-splicing fitness (ln): -2.56 ± 0.13
37 °C
  self-splicing fitness (ln): -1.37 ± 0.12

## GAGAAGCAAUAUUACGGGAU
30 °C
  self-splicing fitness (ln): -3.32 ± 0.16
37 °C
  self-splicing fitness (ln): -2.58 ± 0.2

## GAGAAGCAAUAUUACGGGUC
30 °C
  self-splicing fitness (ln): -3.08 ± 0.15
37 °C
  self-splicing fitness (ln): -2.24 ± 0.16

## GAGAAGCAAUAUUACGGUCU
30 °C
  self-splicing fitness (ln): -2.29 ± 0.13
37 °C
  self-splicing fitness (ln): -1.16 ± 0.17

## GAGAAGCAAUAUUACGUAGA
30 °C
  self-splicing fitness (ln): -2 ± 0.14
37 °C
  self-splicing fitness (ln): -0.626 ± 0.14

## GAGAAGCAAUAUUACGUAUA
30 °C
  self-splicing fitness (ln): -2.51 ± 0.14
37 °C
  self-splicing fitness (ln): -1.71 ± 0.14

## GAGAAGCAAUAUUACGUCCA
30 °C
  self-splicing fitness (ln): -0.235 ± 0.12
37 °C
  self-splicing fitness (ln): 0.335 ± 0.14

## GAGAAGCAAUAUUACGUCUU
30 °C
  self-splicing fitness (ln): -2.33 ± 0.23
37 °C
  self-splicing fitness (ln): -2.92 ± 0.36

## GAGAAGCAAUAUUACGUGGU
30 °C
  self-splicing fitness (ln): -3.27 ± 0.17
37 °C
  self-splicing fitness (ln): -2.32 ± 0.21

## GAGCAGCAAUAUUACGAAUA
30 °C
  self-splicing fitness (ln): -2.87 ± 0.37
37 °C
  self-splicing fitness (ln): -1.8 ± 0.24

## GAGCAGCAAUAUUACGAAUC
30 °C
  self-splicing fitness (ln): -2.08 ± 0.07
37 °C
  self-splicing fitness (ln): -1.22 ± 0.083

## GAGCAGCAAUAUUACGAGAA
30 °C
  self-splicing fitness (ln): -2.25 ± 0.31
37 °C
  self-splicing fitness (ln): -2.61 ± 0.36

## GAGCAGCAAUAUUACGAGCA
30 °C
  self-splicing fitness (ln): -0.982 ± 0.11
37 °C
  self-splicing fitness (ln): -0.888 ± 0.13

## GAGCAGCAAUAUUACGAGUU
30 °C
  self-splicing fitness (ln): -2.48 ± 0.13
37 °C
  self-splicing fitness (ln): -1.1 ± 0.13

## GAGCAGCAAUAUUACGAUCU
30 °C
  self-splicing fitness (ln): -1.71 ± 0.15
37 °C
  self-splicing fitness (ln): -0.141 ± 0.12

## GAGCAGCAAUAUUACGAUGG
30 °C
  self-splicing fitness (ln): -3.68 ± 0.25
37 °C
  self-splicing fitness (ln): -2.61 ± 0.31

## GAGCAGCAAUAUUACGCAAA
30 °C
  self-splicing fitness (ln): -1.4 ± 0.2
37 °C
  self-splicing fitness (ln): -0.683 ± 0.14

## GAGCAGCAAUAUUACGCAAG
30 °C
  self-splicing fitness (ln): -1.36 ± 0.16
37 °C
  self-splicing fitness (ln): -0.218 ± 0.3

## GAGCAGCAAUAUUACGCAAU
30 °C
  self-splicing fitness (ln): -1.89 ± 0.12
37 °C
  self-splicing fitness (ln): -1.53 ± 0.2
